Results: patent US11180770B2, “HPPD variants and methods of use” (BASF Agricultural Solutions Seed US LLC, priority 2017, dated 2021)

Tested on: HPPD polypeptides
Experiment: coupled HPPD activity assay: turnover and residual turnover in crude extracts
Assay type: biochemical, Pseudomonas fluorescens
Details: for Residual turnover [%]: 100 μM Cmpd. 1, signal change with inhibitor divided by signal change without inhibitor; for Turnover: absence of Cmpd. 1, kinetic changes in absorbance (OD) at 320 nm, 30 min; for Turnover / Residual turnover: high substrate concentration; for Residual turnover: presence of 100 μM Cmpd. 1, changes in absorbance (OD) at 320 nm

Molecule	Residual turnover [%]	Turnover	Residual turnover
14 (protein, mutant HPPD polypeptide) MADLYENPMGLMGFEFIEFASPTPGTLEPIFEIMGFTKVATHRSKNVHLYRQGEINLILNNEPNSIASYFAAEHGPSVCGMAFRVKDSQKAYNRALELGAQPIHIDTGPMELNLPAIKGIGGAPLYLIDRFGEGSSIYDIDFVYLEGVERNPVGAGLKVIDHLTHNVYRGRMVYWANFYEKLFNFREARYFDIKGEYTGLTSKAMSAPDGMIRIPLNEESSKGAGQIEEFLMQFNGEGIQHVAFLTDDLVKTWDALKKIGMRFMTAPPDNYYEMLEGRLPDHGEPVDQLQARGILLDGSSVEGDKRLLLQIFSETLMGPVFFEFIQRKGDDGFGPDSFKVLFESVERDQVRRGVLTAD	33	0.188	0.062
22 (protein, mutant HPPD polypeptide) MADLYENPMGLMGFEFIEFASPTPGTLEPIFEIMGFTKVATHRSKNVHLYRQGEINLILNNEPNSIASYFAAEHGPSVCGMAFRVKDSQKAYNRALELGAQPIHIDTGPMELNLPAIKGIGGAPLYLIDRFGEGSSIYDIDFVYLEGVERNPVGAGLKVIDHLTHNVYRGRMVYWANFYEKLFNFREARYFDIKGEYTGLTSKAMSAPDGMIRIPLNEESSKGAGQIEEFLMQFNGEGIQHVAFLTDDLVKTWDALKKIGMRFMTAPGDTYYEMLEGRLPDHGEPVDQLQARGILLDGSSVEGDKRLLLQIFSETLMGPVFFEFIQRKGDDGFGPDSFKVLFEQVERDQVRRGVLTAD	47	0.132	0.062
18 (protein, mutant HPPD polypeptide) MADLYENPMGLMGFEFIEFASPTPGTLEPIFEIMGFTKVATHRSKNVHLYRQGEINLILNNEPNSIASYFAAEHGPSVCGMAFRVKDSQKAYNRALELGAQPIHIDTGPMELNLPAIKGIGGAPLYLIDRFGEGSSIYDIDFVYLEGVERNPVGAGLKVIDHLTHNVYRGRMVYWANFYEKLFNFREARYFDIKGEYTGLTSKAMSAPDGMIRIPLNEESSKGAGQIEEFLMQFNGEGIQHVAFLTDDLVKTWDALKKIGMRFMTAPPDEYYEMLEGRLPDHGEPVDQLQARGILLDGSSVEGDKRLLLQIFSETLMGPVFFEFIQRKGDDGFGPDSFKVLFESVERDQVRRGVLTAD	43	0.134	0.057
24 (protein, mutant HPPD polypeptide) MADLYENPMGLMGFEFIEFASPTPGTLEPIFEIMGFTKVATHRSKNVHLYRQGEINLILNNEPNSIASYFAAEHGPSVCGMAFRVKDSQKAYNRALELGAQPIHIDTGPMELNLPAIKGIGGAPLYLIDRFGEGSSIYDIDFVYLEGVERNPVGAGLKVIDHLTHNVYRGRMVYWANFYEKLFNFREARYFDIKGEYTGLTSKAMSAPDGMIRIPLNEESSKGAGQIEEFLMQFNGEGIQHVAFLTDDLVKTWDALKKIGMRFMTAPADTYYEMLEGRLPDHGEPVDQLQARGILLDGSSVEGDKRLLLQIFSETLMGPVFFEFIQRKGDDGFGPHSFKVLFESIERDQVRRGVLTAD	39	0.271	0.105
17 (protein, mutant HPPD polypeptide) MADLYENPMGLMGFEFIEFASPTPGTLEPIFEIMGFTKVATHRSKNVHLYRQGEINLILNNEPNSIASYFAAEHGPSVCGMAFRVKDSQKAYNRALELGAQPIHIDTGPMELNLPAIKGIGGAPLYLIDRFGEGSSIYDIDFVYLEGVERNPVGAGLKVIDHLTHNVYRGRMVYWANFYEKLFNFREARYFDIKGEYTGLTSKAMSAPDGMIRIPLNEESSKGAGQIEEFLMQFNGEGIQHVAFLTDDLVKTWDALKKIGMRFMTAPADEYYEMLEGRLPDHGEPVDQLQARGILLDGSSVEGDKRLLLQIFSETLMGPVFFEFIQRKGDDGFGPDSFKVLFESVERDQVRRGVLTAD	59	0.138	0.081
15 (protein, mutant HPPD polypeptide) MADLYENPMGLMGFEFIEFASPTPGTLEPIFEIMGFTKVATHRSKNVHLYRQGEINLILNNEPNSIASYFAAEHGPSVCGMAFRVKDSQKAYNRALELGAQPIHIDTGPMELNLPAIKGIGGAPLYLIDRFGEGSSIYDIDFVYLEGVERNPVGAGLKVIDHLTHNVYRGRMVYWANFYEKLFNFREARYFDIKGEYTGLTSKAMSAPDGMIRIPLNEESSKGAGQIEEFLMQFNGEGIQHVAFLTDDLVKTWDALKKIGMRFMTAPRDNYYEMLEGRLPDHGEPVDQLQARGILLDGSSVEGDKRLLLQIFSETLMGPVFFEFIQRKGDDGFGPDSFKVLFESVERDQVRRGVLTAD		0.040	0.030
23 (protein, mutant HPPD polypeptide) MADLYENPMGLMGFEFIEFASPTPGTLEPIFEIMGFTKVATHRSKNVHLYRQGEINLILNNEPNSIASYFAAEHGPSVCGMAFRVKDSQKAYNRALELGAQPIHIDTGPMELNLPAIKGIGGAPLYLIDRFGEGSSIYDIDFVYLEGVERNPVGAGLKVIDHLTHNVYRGRMVYWANFYEKLFNFREARYFDIKGEYTGLTSKAMSAPDGMIRIPLNEESSKGAGQIEEFLMQFNGEGIQHVAFLTDDLVKTWDALKKIGMRFMTAPPDTYYEMLEGRLPDHGEPVDQLQARGILLDGSSVEGDKRLLLQIFSETLMGPVFFEFIQRKGDDGFGPDSFKVLFEQVERDQVRRGVLTAD	39	0.193	0.076
16 (protein, mutant HPPD polypeptide) MADLYENPMGLMGFEFIEFASPTPGTLEPIFEIMGFTKVATHRSKNVHLYRQGEINLILNNEPNSIASYFAAEHGPSVCGMAFRVKDSQKAYNRALELGAQPIHIDTGPMELNLPAIKGIGGAPLYLIDRFGEGSSIYDIDFVYLEGVERNPVGAGLKVIDHLTHNVYRGRMVYWANFYEKLFNFREARYFDIKGEYTGLTSKAMSAPDGMIRIPLNEESSKGAGQIEEFLMQFNGEGIQHVAFLTDDLVKTWDALKKIGMRFMTAPSDNYYEMLEGRLPDHGEPVDQLQARGILLDGSSVEGDKRLLLQIFSETLMGPVFFEFIQRKGDDGFGPDSFKVLFESVERDQVRRGVLTAD	46	0.181	0.083
25 (protein, mutant HPPD polypeptide) MADLYENPMGLMGFEFIEFASPTPGTLEPIFEIMGFTKVATHRSKNVHLYRQGEINLILNNEPNSIASYFAAEHGPSVCGMAFRVKDSQKAYNRALELGAQPIHIDTGPMELNLPAIKGIGGAPLYLIDRFGEGSSIYDIDFVYLEGVERNPVGAGLKVIDHLTHNVYRGRMVYWANFYEKLFNFREARYFDIKGEYTGLTSKAMSAPDGMIRIPLNEESSKGAGQIEEFLMQFNGEGIQHVAFLTDDLVKTWDALKKIGMRFMTAPGDTYYEMLEGRLPDHGEPVDQLQARGILLDGSSVEGDKRLLLQIFSETLMGPVFFEFIQRKGDDGFGPHSFKVLFESIERDQVRRGVLTAD	39	0.215	0.083
20 (protein, mutant HPPD polypeptide) MADLYENPMGLMGFEFIEFASPTPGTLEPIFEIMGFTKVATHRSKNVHLYRQGEINLILNNEPNSIASYFAAEHGPSVCGMAFRVKDSQKAYNRALELGAQPIHIDTGPMELNLPAIKGIGGAPLYLIDRFGEGSSIYDIDFVYLEGVERNPVGAGLKVIDHLTHNVYRGRMVYWANFYEKLFNFREARYFDIKGEYTGLTSKAMSAPDGMIRIPLNEESSKGAGQIEEFLMQFNGEGIQHVAFLTDDLVKTWDALKKIGMRFMTAPSDEYYEMLEGRLPDHGEPVDQLQARGILLDGSSVEGDKRLLLQIFSETLMGPVFFEFIQRKGDDGFGPDSFKVLFESVERDQVRRGVLTAD	53	0.199	0.105
26 (protein, mutant HPPD polypeptide) MADLYENPMGLMGFEFIEFASPTPGTLEPIFEIMGFTKVATHRSKNVHLYRQGEINLILNNEPNSIASYFAAEHGPSVCGMAFRVKDSQKAYNRALELGAQPIHIDTGPMELNLPAIKGIGGAPLYLIDRFGEGSSIYDIDFVYLEGVERNPVGAGLKVIDHLTHNVYRGRMVYWANFYEKLFNFREARYFDIKGEYTGLTSKAMSAPDGMIRIPLNEESSKGAGQIEEFLMQFNGEGIQHVAFLTDDLVKTWDALKKIGMRFMTAPPDTYYEMLEGRLPDHGEPVDQLQARGILLDGSSVEGDKRLLLQIFSETLMGPVFFEFIQRKGDDGFGPHSFKVLFESIERDQVRRGVLTAD	28	0.279	0.077
21 (protein, mutant HPPD polypeptide) MADLYENPMGLMGFEFIEFASPTPGTLEPIFEIMGFTKVATHRSKNVHLYRQGEINLILNNEPNSIASYFAAEHGPSVCGMAFRVKDSQKAYNRALELGAQPIHIDTGPMELNLPAIKGIGGAPLYLIDRFGEGSSIYDIDFVYLEGVERNPVGAGLKVIDHLTHNVYRGRMVYWANFYEKLFNFREARYFDIKGEYTGLTSKAMSAPDGMIRIPLNEESSKGAGQIEEFLMQFNGEGIQHVAFLTDDLVKTWDALKKIGMRFMTAPADTYYEMLEGRLPDHGEPVDQLQARGILLDGSSVEGDKRLLLQIFSETLMGPVFFEFIQRKGDDGFGPDSFKVLFEQVERDQVRRGVLTAD	51	0.157	0.080
19 (protein, mutant HPPD polypeptide) MADLYENPMGLMGFEFIEFASPTPGTLEPIFEIMGFTKVATHRSKNVHLYRQGEINLILNNEPNSIASYFAAEHGPSVCGMAFRVKDSQKAYNRALELGAQPIHIDTGPMELNLPAIKGIGGAPLYLIDRFGEGSSIYDIDFVYLEGVERNPVGAGLKVIDHLTHNVYRGRMVYWANFYEKLFNFREARYFDIKGEYTGLTSKAMSAPDGMIRIPLNEESSKGAGQIEEFLMQFNGEGIQHVAFLTDDLVKTWDALKKIGMRFMTAPRDEYYEMLEGRLPDHGEPVDQLQARGILLDGSSVEGDKRLLLQIFSETLMGPVFFEFIQRKGDDGFGPDSFKVLFESVERDQVRRGVLTAD	45	0.141	0.063
